{"source": "patent US20090181003", "key": {"[1]": {"system": "PKCa (recombinant)"}, "[2]": {"system": "recombinant S6K2 (highly purified)", "sequence (chain, as listed by the source)": "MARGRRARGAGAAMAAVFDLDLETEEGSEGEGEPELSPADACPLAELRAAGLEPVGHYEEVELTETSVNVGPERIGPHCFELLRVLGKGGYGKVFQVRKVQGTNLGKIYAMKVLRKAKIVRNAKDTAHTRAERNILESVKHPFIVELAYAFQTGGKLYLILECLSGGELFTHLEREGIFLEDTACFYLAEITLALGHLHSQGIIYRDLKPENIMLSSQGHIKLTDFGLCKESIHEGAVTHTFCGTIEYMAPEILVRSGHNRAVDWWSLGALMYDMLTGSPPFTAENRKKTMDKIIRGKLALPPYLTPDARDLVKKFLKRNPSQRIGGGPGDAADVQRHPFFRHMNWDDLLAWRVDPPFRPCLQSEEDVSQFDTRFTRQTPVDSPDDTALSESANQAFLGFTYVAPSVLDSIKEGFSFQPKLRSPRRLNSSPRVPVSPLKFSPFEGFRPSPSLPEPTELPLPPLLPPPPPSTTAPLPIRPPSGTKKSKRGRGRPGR"}, "[3]": {"system": "T1, PDK1 (recombinant)", "T1 sequence (O15530 1-556, species assumed, looked up)": "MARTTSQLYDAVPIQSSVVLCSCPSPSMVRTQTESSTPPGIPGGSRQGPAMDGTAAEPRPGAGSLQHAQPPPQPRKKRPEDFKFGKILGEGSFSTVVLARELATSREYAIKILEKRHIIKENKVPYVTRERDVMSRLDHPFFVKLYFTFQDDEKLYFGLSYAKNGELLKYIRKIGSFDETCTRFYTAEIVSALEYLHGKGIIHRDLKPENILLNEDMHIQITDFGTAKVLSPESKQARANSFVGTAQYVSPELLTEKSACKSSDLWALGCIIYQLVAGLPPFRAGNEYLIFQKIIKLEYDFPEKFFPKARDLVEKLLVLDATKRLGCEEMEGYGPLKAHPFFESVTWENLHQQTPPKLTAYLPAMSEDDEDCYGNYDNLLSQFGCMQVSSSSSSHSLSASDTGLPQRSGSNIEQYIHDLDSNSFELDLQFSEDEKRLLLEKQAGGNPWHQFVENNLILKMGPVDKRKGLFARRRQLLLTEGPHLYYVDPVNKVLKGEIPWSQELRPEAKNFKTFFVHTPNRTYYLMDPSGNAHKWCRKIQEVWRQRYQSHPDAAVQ"}, "[4]": {"system": "PKB/Akt (recombinant)", "sequence (P31749 whole entry)": "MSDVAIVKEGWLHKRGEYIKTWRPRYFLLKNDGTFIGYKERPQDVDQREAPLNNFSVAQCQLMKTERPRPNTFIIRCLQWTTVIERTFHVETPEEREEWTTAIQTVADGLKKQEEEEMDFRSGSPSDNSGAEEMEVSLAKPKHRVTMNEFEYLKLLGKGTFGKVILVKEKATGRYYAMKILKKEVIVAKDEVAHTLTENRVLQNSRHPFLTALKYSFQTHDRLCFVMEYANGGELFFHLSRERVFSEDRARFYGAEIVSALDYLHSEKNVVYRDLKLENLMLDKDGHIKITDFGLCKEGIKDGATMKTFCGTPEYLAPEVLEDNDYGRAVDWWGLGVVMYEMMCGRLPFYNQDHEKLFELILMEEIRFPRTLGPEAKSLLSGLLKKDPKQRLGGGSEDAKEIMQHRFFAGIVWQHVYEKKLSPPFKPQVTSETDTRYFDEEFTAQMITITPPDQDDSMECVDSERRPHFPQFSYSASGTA"}, "[5]": {"system": "recombinant S6K1 (highly purified)"}, "[6]": {"system": "PI3-K (p85a/p110a complex)"}}}
{"substance": "full-length p300", "values": [{"measurement": "in vitro acetylation by immunoprecipitated full-length p300", "setting": "[1]", "result": "We detected weak, but reproducible acetylation of PKCa"}, {"measurement": "in vitro acetylation by immunoprecipitated full-length p300", "setting": "[2]", "result": "S6K2 is acetylated in the presence of p300 and AcCoA"}, {"measurement": "site of in vitro acetylation (MALDI mass spectrometry of Arg-C peptide 297 to 310)", "setting": "[2]", "result": "contains a lysine at position 2 (residue 298 in S6K2). This peptide was sequenced and the acetylated lysine was confirmed (data not shown)"}, {"measurement": "in vitro acetylation by immunoprecipitated full-length p300", "setting": "[3]", "result": "no acetylation is observed for PKB/Akt, PDK1, PI3-K (p85a/p110a complex) under conditions used"}, {"measurement": "in vitro acetylation by immunoprecipitated full-length p300", "setting": "[4]", "result": "no acetylation is observed for PKB/Akt, PDK1, PI3-K (p85a/p110a complex) under conditions used"}, {"measurement": "site of in vitro acetylation (MALDI tandem mass spectrometry of tryptic peptide 509Q-R522)", "setting": "[5]", "result": "this peptide was acetylated on the Lysine 516"}, {"measurement": "in vitro acetylation by immunoprecipitated full-length p300", "setting": "[6]", "result": "no acetylation is observed for PKB/Akt, PDK1, PI3-K (p85a/p110a complex) under conditions used"}]}
